The target in test [1] is T1, IRISIN protein (human recombinant IRISIN) (human, UniProt Q8NAU1 1-191).
T1 chain: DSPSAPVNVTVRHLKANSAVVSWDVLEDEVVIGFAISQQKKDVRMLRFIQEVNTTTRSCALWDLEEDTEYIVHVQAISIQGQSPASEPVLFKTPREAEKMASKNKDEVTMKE
In words: BLI.

In test [2] the target is T1, IRISIN protein (human recombinant …). Briefly: BLI. (BLI is a label-free optical method that tracks binding on a fibre tip over time.)

Among the data in PMC9063202 (2022) are koff and Kd values, retold here.

B1: TRPC3 protein (provided by Chen Lei Laboratory, Peking University) (natural protein)
chain: MEGSPSLRRMTVMREKGRRQAVRGPAFMFNDRGTSLTAEEERFLDAAEYGNIPVVRKMLEESKTLNVNCVDYMGQNALQLAVGNEHLEVTELLLKKENLARIGDALLLAISKGYVRIVEAILNHPGFAASKRLTLSPCEQELQDDDFYAYDEDGTRFSPDITPIILAAHCQKYEVVHMLLMKGARIERPHDYFCKCGDCMEKQRHDSFSHSRSRINAYKGLASPAYLSLSSEDPVLTALELSNELAKLANIEKEFKNDYRKLSMQCKDFVVGVLDLCRDSEEVEAILNGDLESAEPLEVHRHKASLSRVKLAIKYEVKKFVAHPNCQQQLLTIWYENLSGLREQTIAIKCLVVLVVALGLPFLAIGYWIAPCSRLGKILRSPFMKFVAHAASFIIFLGLLVFNASDRFEGITTLPNITVTDYPKQIFRVKTTQFTWTEMLIMVWVLGMMWSECKELWLEGPREYILQLWNVLDFGMLSIFIAAFTARFLAFLQATKAQQYVDSYVQESDLSEVTLPPEIQYFTYARDKWLPSDPQIISEGLYAIAVVLSFSRIAYILPANESFGPLQISLGRTVKDIFKFMVLFIMVFFAFMIGMFILYSYYLGAKVNAAFTTVEESFKTLFWSIFGLSEVTSVVLKYDHKFIENIGYVLYGIYNVTMVVVLLNMLIAMINSSYQEIEDDSDVEWKFARSKLWLSYFDDGKTLPPPFSLVPSPKSFVYFIMRIVNFPKCRRRRLQKDIEMGMGNSKSRLNLFTQSNSRVFESHSFNSILNQPTRYQQIMKRLIKRYVLKAQVDKENDEVNEGELKEIKQDISSLRYELLEDKSQATEELAILIHKLSEKLNPSMLRCE
The term koff denotes a measure of how fast the partners let go of each other. One may read the Kd as a measure of binding affinity in units of concentration. In the case of B1, the koff in test [1] stood at 0.00384 s⁻¹. For the same molecule, the Kd in test [2] was 32.2 nM.
